± gives the standard error. This sample holds only a part of the variants without activity.
B1: glmS ribozyme (parent)
chain: AUAAAAGCGCCAGAACUACAGAAAUGUAGUUGACGAGGAGGAGGUUUAUCGAAUUUUCGGCGGAUGCCUCCAAA

Variants of: B1
Assay: self-cleavage kobs at 2500 uM GlcN6P; higher = faster cleavage; RNA array
Conditions: with glucosamine-6-phosphate
Summary of the method: (§1)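 Over ~14 h at 37 °C, tiles were imaged as glucosamine-6-phosphate (40 μM to 10 mM) in HEPES/KCl/Mg(OAc)2 buffer flowed across sequenced MiSeq chips. The chips carried barcoded ribozyme variants transcribed in situ by E. coli RNA polymerase and tracked with a hybridised Cy3 probe. After normalisation to baseline and to non-cleaving reference variants, one- or two-exponential decay fits of per-tile medians gave kobs. kcat and KM followed from weighted Michaelis–Menten fits across concentrations.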

| Variant | self-cleavage kobs at 2500 uM GlcN6P [s⁻¹] |
| --- | --- |
| AUAAAAGCGCCAGCACUACAGAAAUGUAGUUGACGAGGCGGAGGUUUAUCGAAUUUUCGGCGGAGGCCUCCAAA | < 1e-05 |
| AUAAAAGCGCCAUAACUACAGAAAUGUAGUUGACGUGGAGGAGGUUUAUCGACUUUUCGGCGGAUGCCUCCAAA | < 1e-05 |
| AUAAAAGCGCCAAAACUACAGAAAUGUAGAUGACGAGGAGGAGGAUUAUCGAAUUUGCGUCGGACGCGUCCAAA | < 1e-05 |
| AUAAAAGCGCCACAACUACAGAAAUGUAGUUUACGAGUAGGAGGUUGUUCGAAUUUUCGGCGGAUGCCUCCAAA | < 1e-05 |
| AUAAAAGCGCCAGCACUACAGAAAUGUAGUUGACGAGGGGGAGGUUUAUCGAAUUUUGGGCGGAUGCCUCCAAA | 5e-05 ± 1.9e-05 |
| AUAAAAGCGCCAUAACUACAGAAAUGUAGUUGACGAGGAGGAGGUUUCUCGAAUUUUCGGAGGAUGCCUCCAAA | < 1e-05 |
| AUAAAAGCGCCAAAACUACAGAAAUGUAGUUGACGAGGAGGAGUAUUAUCGAAUUUACGGCGGAUGCCCCCAAA | < 1e-05 |
| AUAAAAGCGCCACAACUACAGAAAUGUAGUUGACGAGGAGGAGGUUUAUCGAAUUUUCGGCGGAUGCCUCUAAA | 9.01e-05 ± 1.5e-05 |
| AUAAAAGCGCCAAAACUACAGAAAUGUAGUUGACGGGGAGGAGGUUUAUCGAAUUUUGGGCGGAUGCGUCCAAA | 0.000157 ± 5.4e-05 |
| AUAAAAGCGCCACAACUACAGAAAUGUAGUUGACGAGGAGGAGCUUUAUCGAUUUUUCGGCGGAUGCCUCCAAA | < 1e-05 |
| AUAAAAGCGCCUGAACUACAGAAAUGUAGUCGACGAGGAGGAGGUUUAUCGAAUUUGCGGCGGAUGCCUCCAAA | 5.17e-05 ± 1.8e-05 |
| AUAAAAGCGCCACAAUUACAGAAAUGUAGUUGACGAGGAGGAGGUUUAUCGAAUUUUCGGCGGAUGCCUCUAAA | 7.64e-05 ± 1.7e-05 |
| AUAAAAGCGCCACAACUACAGAAAUGUAGUUGACGAGGAGGAGGUUUAUCGAAUUUUCGGAGGAUGCGUCCAAA | < 1e-05 |
| AUAAAAGCGCCAUAACUACAGAAAUGUAGUUGACGAGGAGGAGGUUUAUCGACUUUUCGGCGGAUGCCUCCAAA | 9.93e-05 ± 1.9e-05 |
| AUAAAAGCGCCAUGACUACAGAAAUGUAGUUGACGAGGAGGAGGUUCAUCGAAUUUUCGGCGGAUGCCUCCAAA | 8e-05 ± 2.7e-05 |
| AUAAAAGCGCCAUAACUACAGAAAUGUAGUUGACGAGGAGGAGGUUUACAGAAUUUUCAGCGGAUGCCUGCAAA | 3.99e-05 ± 2e-05 |

| Variant | self-cleavage kobs at 2500 uM GlcN6P [s⁻¹] |
| --- | --- |
| AUAAAAGCGCCUGAACUACAGAAAUGUAGUUGACGAGGAGGAGGUUGAUCGAAUUUUCGGCGGAGGCCUCCAAA | 0.00179 ± 0.0004 |
| AUAAAAGCGCCUGAACUACAGAAAUGUAGGUGACGAGGAGGAGGUUUACCGAAUUUUCGGCGGAUGCCUCCAAA | < 1e-05 |
| AUAAAAGCGCCACAACUACAGAAAUGUAGUUGCCGAGGAGGAGGUUCAUCGAAUUUUCGGCGGUUGCCUACAAA | < 1e-05 |
| AUAAAAGCGCCAAAACUACAGAAAUGUAGUUGACGAGGAGGAGGUUUAUCGAAGUUUCGGCGGAUGCAUCCAAA | 7.33e-05 ± 2.7e-05 |
| AUAAAAGCGCCAUAACUACAGAAAUGUAGUUGACGAGGAGGAGGUUGAUCGAAAUUUCGGCAGAUGCCUCCAAA | < 1e-05 |
| AUAAAAGCGCCUGAACUACAGAAAUGUAGUGGACGAGGAGGAGGUUUAUCGAAUUUUGGGCGGAUGCCUCCAAA | 7.42e-05 ± 2.7e-05 |
| AUAAAAGCGCCACAUCUACAGAAAUGUAGUUGACGAGGAGUGCGUUUAUCGAAUUUUCGGCGGAUGCCUCCAAA | < 1e-05 |
| AUAAAAGCGCCUGAACUACAGAAAUGUAGAUGACGAAGAGGAGGUUUAUCGAAUUUUCUGCGGAUGCCUCCAAA | < 1e-05 |
| AUAAAAGCGCCUGAACUACAGAAAUGUAGUUGACGAGGAGGAGGUUUAUCGAAUUUUCGGCCGAUGCCUGCAAA | < 1e-05 |
| AUAAAAGCGCCACAACUACAGAAAUGUAGUUGACGAGGAGAAGGUUUAUCGAAUUUUCGGCCGAUGCCUCCAAA | < 1e-05 |
| AUAAAAGCGCCAAAACUACAGAAAUGUAGUUGACGAGGAGGAGGUUUACUGAAUUUUCGGCGGAUGCCUCCAAA | < 1e-05 |
| AUAAAAGCGCCUGAACUACAGAAAUGUAGUUGACGAGGAGGAGGUUUAUCGAAUUUUCGGCGGAGGCCUACAAA | 6.44e-05 ± 2.6e-05 |
| AUAAAAGCGCCACAACUACAGAAAUGUAGCUGACGAGGAGGAGGUUUAUCGAAUUUUCGGCGGAUGCCUCGAAA | 4.16e-05 ± 2.1e-05 |
| AUAAAAGCGCCAUAACUACAGAAAUGUAGUUGACGAGUAGGAGGUUUAUCGAAUUUUCGGCGGAUGCUUCCAAA | < 1e-05 |
| AUAAAAGCGCCAUAACUACAGAAAUGUAGUUGACGAGGAGGAGGUUUGUCGAAUUUGCGGCGGAUGCCUCCAAA | < 1e-05 |

Variants of: B1
Assay: self-cleavage kobs at 10000 uM GlcN6P; higher = faster cleavage; RNA array
Conditions: with glucosamine-6-phosphate
Summary of the method: as §1

| Variant | self-cleavage kobs at 10000 uM GlcN6P [s⁻¹] |
| --- | --- |
| AUAAAAGCGCCAUAACUACAGAAAUGUAGUUGACGUGGAGGAGGUUUAUCGACUUUUCGGCGGAUGCCUCCAAA | < 1e-05 |
| AUAAAAGCGCCAGCACUACAGAAAUGUAGUUGACGAGGGGGAGGUUUAUCGAAUUUUGGGCGGAUGCCUCCAAA | 8.88e-05 ± 1.6e-05 |
| AUAAAAGCGCCACAACUACAGAAAUGUAGUUGACGAGGAGGAGGUUUAUCGAAUUUUCGGCGGAUGCCUCUAAA | 0.000149 ± 1.6e-05 |
| AUAAAAGCGCCACAAUUACAGAAAUGUAGUUGACGAGGAGGAGGUUUAUCGAAUUUUCGGCGGAUGCCUCUAAA | 0.000169 ± 5.1e-05 |
| AUAAAAGCGCCAUGACUACAGAAAUGUAGUUGACGAGGAGGAGGUUCAUCGAAUUUUCGGCGGAUGCCUCCAAA | 0.000208 ± 5.4e-05 |
| AUAAAAGCGCCUGAACUACAGAAAUGUAGUUGACGAGGAGGAGGUUUAUCGAAUUUUCGGCGGAGGCCUACAAA | 0.000122 ± 2.2e-05 |
